Data on 15 molecules can be found in US20190248902A1 (published 2019).

Assay [1] has as its target T1, Dog ASGR-1 (dog).
T1 construct: Expressed on HEK 293 cells or as membrane prep on beads; cDNA GenBank XM_546579
T1 chain: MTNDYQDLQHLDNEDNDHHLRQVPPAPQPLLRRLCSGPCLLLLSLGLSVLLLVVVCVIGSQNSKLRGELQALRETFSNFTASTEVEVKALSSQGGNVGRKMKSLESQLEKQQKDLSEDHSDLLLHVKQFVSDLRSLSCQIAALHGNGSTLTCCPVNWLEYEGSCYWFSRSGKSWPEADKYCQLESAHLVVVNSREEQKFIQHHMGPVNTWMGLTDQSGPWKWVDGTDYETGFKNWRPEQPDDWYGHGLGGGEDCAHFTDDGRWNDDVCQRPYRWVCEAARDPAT
Kind of assay: FACS on transfected HEK 293 cells or membrane preps on beads; Y = signal at least 2x irrelevant IgG. An outline of the steps: (§1)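 Antibodies at normalized concentrations bound 1 h at 4° C to HEK 293 cells expressing each antigen, then Alexa Fluor 647 anti-Fc plus 7-AAD 15 min at 4° C, flow cytometry; empty-vector cells as negative. Alternatively, species ASGR-1 membrane preps on streptavidin beads, antibody 1 h RT, Alexa Fluor 488 anti-Fc; FACS buffer with 1 mM CaCl2 throughout.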

Another assay has as its target T2, Rat ASGR-1 (rat, UniProt P02706 1-284).
T2 construct: Expressed on HEK 293 cells or as membrane prep on beads; cDNA GenBank NM_012503
T2 sequence: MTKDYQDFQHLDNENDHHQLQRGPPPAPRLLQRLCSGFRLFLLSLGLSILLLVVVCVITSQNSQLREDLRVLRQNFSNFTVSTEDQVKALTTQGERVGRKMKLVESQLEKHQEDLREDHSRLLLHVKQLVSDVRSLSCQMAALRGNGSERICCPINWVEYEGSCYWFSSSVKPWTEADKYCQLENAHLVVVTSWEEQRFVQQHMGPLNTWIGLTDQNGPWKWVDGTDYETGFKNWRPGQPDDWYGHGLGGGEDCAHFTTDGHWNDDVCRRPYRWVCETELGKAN
The assay is described as above. An outline of the steps:
as §1

For assay [2], the target named is T1, Dog ASGR-1. Kind of assay: FACS on transfected HEK 293 cells or membrane preps on beads; binding = signal at least 2x irrelevant IgG. The method, boiled down:
as §1

B1: 190F8 (antibody, V domains shown)
VH: QVQLVESGGGVVQPGRSLRLSCAASGFTFSTYGMHWVRQAPGKGLEWVAVIWYDGSNKNYADSVKGRFTISRDNSKNTLYLQMNSLRAEDTAVYYCARDQGVGYDGLDVWGQGTTVTVSS
VL: DIQMTQSPSSLSASVGDRVTITCRTSQGIGNYLAWFQQKPGKAPKSLLYKASSLQSGVPSKFSGSGSGTDFTLTISSLQPEDFATYYCQQYMTYPLTFGGGTKVEIK
notes: Tested as hybridoma supernatant at normalized concentration
On to B1, for which, in the assay with Dog ASGR-1 [1], the binding result is reported as “binds”.

B2: 194C1 (antibody, V domains shown)
VH: QVQLVESGGGVVQPGRSLRLSCAASGFTFSSYGMHWVRQAPGKGLEWVAVIWYDGSNEHYADSVKGRFTISRDNSKNTLYLQMNSLRAEDTAVYYCARNRGVGYYGLDVWGQGTTVTVSS
VL: DIQMTQSPSSLSASVGDRVTITCRASQGISNYLAWFQQKPGKAPKSLIYAASSLQSGVPSKFSGSGSGTDFTLTISSLQPEDFATYYCLHYLTYPLTFGGGTKVEIK
notes: as for B1
As for B2, in the assay with Dog ASGR-1 [1], the binding result was “binds”.

B3: 197G3 (antibody, V domains shown)
VH: QVQLVESGGGVVQPGRSLRLSCVASGFTFSSHGMHWVRQAPGKGLEWVAVIWYDGSNKNYADSVKGRFTISRDNSKNTLYLQMNSLRAEDTAVYYCARDPSVGYDGMDVWGQGTTVTVSS
VL: DIQMTQSPSSLSASVGDRVTITCRASQGIGNHLAWFQQKPGKAPKSLIYAASSLQSGVPSKFSGSRSGTDFSLTISSLQPEDFATYYCQQYSNYPVTFGPGTKVDIK
notes: as for B1
Take B3: the binding result with Dog ASGR-1 [1] was “binds”.

B4: 198G3 (antibody, V domains shown)
VH: QVQLVESGGGVVQPGRSLKLSCAASGFTFSTYGMHWVRQAPGKGLEWVAVIWYDGTNKNYADSVKGRFTISRDNSKNTLCLQMNSLRAEDTAVYYCARDQGVGYDGLDVWGQGTTVTVSS
VL: DIQMAQSPSSLSASVGDRVTITCRTSQGIGKYLAWFQQKPGKAPKSLLYKASSLQGGVPSKFSGSGSGTDFTLTISSLQPEDFATYYCQQYMTYPLTFGGGTKVEIK
notes: as for B1
In the case of B4, the binding result with Dog ASGR-1 [1] is reported as “binds”.

B5: 191G1 (antibody, V domains shown)
VH: QVQLVESGGGVVQPGRSLRLSCAASGFTFSSYGMHWVRQAPGKGLEWVAVIWYDGSNEHYADSVKGRFTISRDNSKNTLYLQMNSLRAEDTAVYYCARDRGVGYYGLDVWGQGTTVTVSS
VL: DIQMTQSPSSLSASVGDRVTITCRASQGISNYLAWFQQKPGKAPKSLIYAASSLQSGVPSKFSGSGSGTDFTLTISSLQPEDFATYYCQHYLTYPLTFGGGTKVEIK
notes: as for B1
For B5, the binding result with Dog ASGR-1 [1] is on record as “binds”.

B6: 191G10 (antibody, V domains shown)
VH: QVQLVESGGGVVQPGRSLRLSCAASGFTFSSYGMHWVRQAPGKGLEWVAVIWYDGSNKNYADSVKGRFTISRDNSKNTLYLQMNSLRAEDTAVYYCARDQGVGYDGLDVWGQGTTVTVSS
VL: DIQMTQSPSSLSASVGDRVTITCRTSQGIGKYLAWFQQKPGKAPKSLLYKVSSLQSGVPSKFSGSGSGTDFTLTISSLQPEDFATYYCQQYMTYPLTFGGGTKVEIK
notes: as for B1
In the case of B6, the binding result with Dog ASGR-1 [1] is recorded as “binds”.

B7: 218G4 (antibody, V domains shown)
VH: QVQLVESGGGVVQPGRSLRLSCAASGFTFSSYGLHWVRQAPGKGLEWVAVIWYDGSNKYYADSVKGRFTISRDNSKNTLYLQMNSLRVEDTAVYYCANWYYYYYGMDVWGQGTTVTVSS
VL: QSVLTQPPSVSAAPGQKVTISCSGSSSNIGNNYVSWYQQLPGTAPKLLLYDSNKRPSGIPARFSGSKSGTSATLGITGLQTGDEADYYCGTWDSSLNTVVFGGGTKLTVL
notes: as for B1
As for B7, the binding result with Dog ASGR-1 [1] is “binds”.

B8: 194A4 (antibody, V domains shown)
VH: QVQLVQSGTEVKKPGASLKVSCKASGYTFTVYYLNWVRQAPGQGLEWMGWINPNSGGTNYAQKFQGRVTMTRDTSISTAYMELSRLRSDDTAVYYCARGYDILTGWGQGTLVTVSS
VL: EIVLTQSPGTLSLSPGERATLSCRASRGVSNIYLAWYQQKPGQAPRLLIYGASNRATGIPDRFSGSGSGTDFTLTISRLEPEDFAVYYCQHNDYSMFTFGPGTKVDIK
notes: as for B1
B8: the binding result in the assay with Rat ASGR-1 and with Dog ASGR-1 [1] was “binds” in each case.

B9: 176H4 (antibody, V domains shown)
VH: QVQLVESGGGVVQPGRSLRLSCAASGFTFSSYGMHWVRQAPGKGLEWVAIIWYDGSYKYYADSVKGRFTISRDNSKNTLYLQMSSLRAEDTAVYYCARDAHDFWSGYFAYWGQGALVTVSS
VL: DIVMTQTPLSLSVTPGQPASISCKSSQSLLHGDGKTYLYWYLQKPGQPPQLLIYEVSNRFSGVPDRFSGSGSGTDFTLKISRVEAEDVGIYYCMQSIQIPWTFGQGTRVEIK
notes: as for B1
As to B9, the binding result in the assay with Dog ASGR-1 [1] is “binds”.

B10: 202A3 (antibody, V domains shown)
VH: QVQLEQSGAEVKKPGASVKVSCKASGYTFTSYDINWVRQATGQGLEWLGWMNPKRGNTGYAQKFQGRVTMTRNTSISTAHMELSSLRSEDTAVYYCARGRYSREDYYYYYDMDVWGQGTTVTVSS
VL: DIQMSQSPSSLSASVGDRVTITCRASQGIRNDLGWYQQKPGKAPKRLICAASRLQSGVPSRFSGSGSGTEFTLTISSLQPEDFAIYYCLQHHDYPFTFGPGTKVDIK
notes: as for B1
In the case of B10, the binding result with Dog ASGR-1 [1] was “binds”.

B11: 7G4 (antibody, V domains shown)
VH: QVQLVESGGGVVQPGRSLRLSCAASGFTFNNYVMHWVRQAPGKGLEWVAVIWYDGSNKYYADSVKGRFTISRDNSKNTLYLQMTSLRAEDTAVYYCAREKYSSNWYDYGMDVWGQGTTVTVSS
VL: DIQMTQSPSSLSASVGDRVTITCRASQGIRNDLGWYQQRPGKAPKRLIYAASSLQSGVPSRFSGSGSGTEFTLTISSLQPEDSATYYCLHQYSYPRTFGQGTKVEIK
notes: as for B1
With B11, in the assay with Dog ASGR-1 [2], the binding result is on record as “no binding”.

B12: 7E11 (antibody, V domains shown)
VH: QVQLVESGGGVVQPGRSLRLSCAASGFTFSSFGMHWVRQAPGKGLEWVAIIWHDGSNKYYADSVKGRFTISRDNSNNTLYLQMSSLRAEDTAVYYCARDLSMGGMDVWGQGTTVTVSS
VL: DIQMTQSPSSLSASVGDRVTIACRASQNIISYLNWYQQKPGKAPKFLIYTASSLQSGVPSRFSGSGSGTDFTLTISSLQPEDFAIYYCQQTYSTPLTFGGGTKVEIK
notes: as for B1
Consider B12, for which the binding result with Dog ASGR-1 [2] is “no binding”.

B13: 75G3 (antibody, V domains shown)
VH: QVQLQQWGAGLLKPSETLSLTCAVYGGSLSGSYWSWIRQPPGKGLEWIGEINLSGSTNYNPSLKSRVTISVDTSKSQFSLTLRSVTAADTAVYYCARDYGGLDYWGQGTLVTVSS
VL: EIVLTQSPGTLSLSPGERATLSCRARQNVDSSYLAWYQQKPGQAPRLLIYGASSRATGIPDRFSGSGSGTDFTLTISRLEPEDFAVFYCQQYERSPWTFGQGTKVEIK
notes: as for B1
Regarding B13, in the assay with Dog ASGR-1 [1], the binding result is “binds”.

B14: 48B12 (antibody, V domains shown)
VH: EVQLLESGGGLVQPGGSLRLSCAASGFTFSSYAMNWVRQAPGKGLEWVSAISGRGGNTFYADSVKGRFTISRDNSKNTLYLQMNSLRAEDTAVYYCAKRETYNWNYEGFDYWGQGTLVTVSS
VL: SYELTQPPSVSVSPGQTARITCSGDALPKKYAYWYQQKSGQAPVLVIYEDSKRPSGIPERFSGSSSGTMATLTISGAQVEDEADYYCNSTDSSGNHVVFGGGTKLTVL
notes: as for B1
With B14, the binding result with Dog ASGR-1 [2] is recorded as “no binding”.

B15: 194C10 (antibody, V domains shown)
VH: QVQLQQWGAGLLKPSETLSLTCAVSGGSFRYYYWSWIRQPPGKGLEWFGEINHSGSTNYNPSLKSRVTISIDTSKNQFSLKLRSVTAADTAVYYCARDYGAFDIWGQGTMVTVSS
VL: EIVLTQSPGTLSLSPGERATLSCRASPSVNSGYLAWYQQKPGQTPRLLIFGASSRATGIPDRFSASGSGADFTLTISRLEPEDFAVYFCQQYESSPWTFGQGTKVEIK
notes: as for B1
For B15, the binding result with Dog ASGR-1 [1] is “binds”.
